The supplement of paper PMC10567573

B1: FAM116A (parent)
chain: TVHEVDIFRCFCPVFLHSQMLWEL
B2: STX5 (parent)
chain: ESTIVELGSIFQQLAHMVKEQEET

Variants of: B1
Experiment: protein stability index of a GFP-peptide fusion (GPS, HEK-293T) (PSI 1-6); higher = more stable
Conditions: c terminus: a fixed tail appended
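Also: lentivirally expressed fusions sorted by FACS into six bins by GFP to DsRed ratio, PSI derived from sequencing read proportions per bin multiplied by bin number.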

Protein stability index of substitutions, site by site:
T1: D 4.17 | K 2.66 | H 3.11 | G 1.75 | I 1.4

Variants of: B2
Experiment: as above
Conditions: c terminus: a fixed tail appended

Protein stability index: each site, then its substitutions
Q13: C 2.32 | Y 2.37 | I 1.44 | V 2.16 | A 2.4 | N 2.23 | T 3.28 | K 2.8 | M 1.98 | F 1.57 | H 2.43 | P 4.54 | S 2.95 | G 4.12 | E 2.57 | L 1.54 | W 1.88
S9: R 2.41 | A 1.65 | T 2.11 | G 3.22 | Y 1.46 | V 1.8 | K 2.34 | N 2.26 | C 1.63 | E 2.08 | Q 2.1 | L 1.71 | M 1.87 | D 2.55 | H 2.64 | I 1.32
I10: V 3.1 | S 4.89 | H 4.5 | W 2.58 | R 3.9 | F 2.26 | M 2.6 | L 2.63 | Y 3.49 | N 5.07 | D 5.88 | K 3.69 | E 5.46 | T 4.49 | P 5.58 | Q 4.27 | A 4.32 | C 3.72
L7: V 4.25 | N 4.96 | W 2.99 | G 5.65 | Y 3.97 | S 5.42 | D 5.12 | M 2.48 | Q 4.89 | E 5.22 | T 4.5 | R 5.13 | I 2.16 | P 4.75 | C 3.74 | H 4.9 | F 3.03 | K 5.07
E6: G 2.75 | Q 2.33 | T 1.91 | M 1.95 | V 1.62 | K 2.54 | I 3.1 | Y 1.81 | F 2.19 | L 2.34 | P 2.75 | N 3.14 | H 2.33 | R 4.41
E22: M 2.89 | T 1.39 | P 1.69 | C 2.4 | Y 1.39 | L 5.42 | K 2 | H 1.3 | I 2.7 | W 1.53 | G 1.06 | S 2.44 | A 2.75 | D 1.97 | N 1.98 | Q 2.65 | F 2.88
E23: K 1.48 | Q 2.5 | G 1.28 | A 1.88 | D 2.19 | S 1.23 | L 1.42 | V 3.06 | N 1.47 | H 2.11 | Y 1.2 | P 2.06 | R 1.77 | C 1.83 | T 1.32 | I 2.38
V18: K 4.16 | Q 2.37 | C 2.44 | S 4.14 | R 3.65 | I 2.41 | H 3.73 | W 2.22 | P 4.45 | D 5.09 | L 1.8 | M 2.79 | A 3.27 | E 4.64 | G 4.6 | T 3.45 | N 4.38 | Y 2.44 | F 1.81
H16: A 2.13 | G 2.13 | E 1.96 | F 2.02 | R 1.79 | N 1.97 | T 3.09 | D 1.78 | M 3 | L 2.75 | P 4.65 | S 2.36 | K 2.27 | Y 1.67 | Q 1.33 | I 1.88 | V 2.43
A15: P 4.91 | E 4.21 | C 2.21 | L 1.76 | W 2.18 | S 2.99 | F 2.09 | Q 2.81 | V 2.24 | D 4.28 | M 1.74 | I 1.53 | R 2.67 | N 3.67 | K 3.1 | G 3.91 | Y 1.74 | H 3.15 | T 3.66
E20: S 2.08 | H 1.62 | T 1.18 | M 4.03 | N 1.53 | D 2.78 | Y 3.75 | F 1.98 | K 2.86 | Q 1.12 | W 1.86 | P 1.61 | R 1.76 | G 2.02 | C 2.54 | A 2.19
L14: P 4.93 | Q 4.75 | M 3.77 | F 1.69 | T 4.78 | D 5.05 | G 4.64 | E 5.33 | W 3.17 | A 4.31 | R 5.32 | I 2.09 | Y 1.81 | N 5.24 | V 2.81 | K 5.2 | H 4.11 | S 5.26 | C 4.42
G8: M 1.35 | Q 1.68 | D 2.28 | C 2.33 | A 2.47 | S 2.79 | L 1.85 | F 2.06 | R 1.84 | E 3.02 | P 3.99 | H 2.48 | N 2.44 | I 2.24 | T 2.69 | Y 3.89 | K 1.94
F11: M 2.98 | A 3.83 | W 2.83 | R 4.92 | C 3.62 | S 4.27 | Y 3.19 | G 5.35 | I 2.27 | Q 3.48 | T 4.81 | V 3.19 | H 5.76 | P 4.65 | D 5.77 | N 5.61 | L 2.8 | K 4.85
Q12: N 2.99 | A 1.98 | I 2.26 | H 3.15 | M 1.98 | F 2.26 | K 1.79 | R 2.4 | W 1.32 | C 1.7 | S 2.1 | T 1.93 | Y 2.17 | D 3.34 | L 3.46 | P 4.39 | V 2.07
M17: T 4.18 | Y 3.29 | K 2.06 | W 2.06 | N 4.16 | D 4.11 | L 1.7 | H 3.7 | I 2.3 | R 3 | C 3.6 | E 3.41 | G 3.86 | F 2.46 | A 2.83 | Q 2.26 | S 3.4 | P 4.59
Q21: D 2.4 | H 1.97 | E 3.05 | K 2.6 | S 1.81 | W 3.33 | T 2.88 | A 1.67 | G 2.75 | L 2.67 | F 1.98 | R 1.36 | M 1.87 | Y 2.23 | C 1.91 | I 1.64 | P 3.29 | N 2.12 | V 1.73
T24: V 2.01 | E 2.12 | Q 1.59 | L 1.5 | W 2.89 | A 2.17 | Y 2.29 | H 2.42 | P 2.77 | S 2 | N 2.88 | K 1.83 | C 1.62 | D 1.89 | I 1.78 | G 1.97 | R 2.12 | F 1.6
K19: M 1.9 | S 1.97 | D 4.35 | N 2.95 | G 2.76 | P 4.08 | Y 1.17 | H 2.44 | A 1.81 | E 2.92 | I 1.59 | C 1.41 | T 2.41 | R 1.85 | Q 2.32 | F 2.31
